This note sets out measurements from patent US20130023004A1 (WASHINGTON UNIVERSITY, published 2013).

For one data set, the target named is plasma ADAMTS13 (human) (UniProt Q76LX8). As to the kind of experiment: cell-based or functional assay.
The target in the next data set is T1, FRETS-rVWF71.
T1 chain: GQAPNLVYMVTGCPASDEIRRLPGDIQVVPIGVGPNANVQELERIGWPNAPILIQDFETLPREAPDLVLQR

For another data set, the target named is T2, plasma ADAMTS13 (human, UniProt Q76LX8 75-1427).
T2 construct: Not purified; enzyme source was plasma (about 6 nM ADAMTS13 in PNP by a literature value); also called ADAMTS13 in PNP (pooled normal plasma)
T2 sequence (looked up): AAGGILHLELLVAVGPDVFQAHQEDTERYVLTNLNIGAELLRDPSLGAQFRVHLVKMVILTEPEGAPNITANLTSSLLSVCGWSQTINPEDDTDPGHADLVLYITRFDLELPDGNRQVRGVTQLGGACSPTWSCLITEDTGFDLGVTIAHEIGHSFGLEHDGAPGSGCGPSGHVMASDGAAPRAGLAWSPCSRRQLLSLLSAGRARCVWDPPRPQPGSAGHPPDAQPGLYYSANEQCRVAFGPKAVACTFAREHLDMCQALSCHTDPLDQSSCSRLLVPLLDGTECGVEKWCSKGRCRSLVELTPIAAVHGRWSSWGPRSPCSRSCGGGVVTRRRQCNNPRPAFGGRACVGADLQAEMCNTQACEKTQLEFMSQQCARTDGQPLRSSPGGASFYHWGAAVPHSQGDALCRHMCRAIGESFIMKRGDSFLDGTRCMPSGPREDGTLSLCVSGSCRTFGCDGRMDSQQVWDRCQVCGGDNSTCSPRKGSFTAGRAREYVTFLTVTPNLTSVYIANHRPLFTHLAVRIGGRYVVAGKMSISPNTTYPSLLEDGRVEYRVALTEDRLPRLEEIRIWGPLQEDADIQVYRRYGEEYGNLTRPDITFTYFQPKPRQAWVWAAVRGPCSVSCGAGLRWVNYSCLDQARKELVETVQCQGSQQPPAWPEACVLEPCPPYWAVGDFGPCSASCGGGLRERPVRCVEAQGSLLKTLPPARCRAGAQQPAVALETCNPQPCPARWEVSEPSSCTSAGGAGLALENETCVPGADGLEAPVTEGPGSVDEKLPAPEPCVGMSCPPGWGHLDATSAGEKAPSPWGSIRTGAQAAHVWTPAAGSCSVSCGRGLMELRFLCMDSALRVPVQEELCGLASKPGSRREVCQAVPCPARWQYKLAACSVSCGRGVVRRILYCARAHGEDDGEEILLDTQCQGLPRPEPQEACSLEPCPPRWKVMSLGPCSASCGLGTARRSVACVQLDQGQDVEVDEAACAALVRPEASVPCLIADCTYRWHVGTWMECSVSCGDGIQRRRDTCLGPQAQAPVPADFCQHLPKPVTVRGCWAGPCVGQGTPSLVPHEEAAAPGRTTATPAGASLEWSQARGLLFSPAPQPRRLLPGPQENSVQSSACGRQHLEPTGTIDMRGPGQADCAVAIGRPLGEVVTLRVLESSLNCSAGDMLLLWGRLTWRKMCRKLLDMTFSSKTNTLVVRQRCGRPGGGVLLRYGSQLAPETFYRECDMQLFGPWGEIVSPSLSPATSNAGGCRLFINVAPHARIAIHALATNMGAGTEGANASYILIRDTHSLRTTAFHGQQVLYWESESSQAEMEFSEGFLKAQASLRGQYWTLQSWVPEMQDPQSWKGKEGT
As to the kind of experiment: Michaelis-Menten kinetics of substrate cleavage by plasma ADAMTS13 (fluorescence). The method, then:
In these experiments, FRETS-rVWF71 cleavage by plasma ADAMTS13 (50 μL) was assessed in 200 μL reactions containing 50 mM HEPES, pH 7.4, 10 mM CaCl₂, 150 mM NaCl, and 0.05% Tween-20, and varying concentrations of FRETS-rVWF71. The concentration of ADAMTS13 in PNP is ˜1.03 μg/ml (Feys, H. B., et al. J. Thromb. Haemost 4:955-62, 2006), or ˜6 nM for a molecular mass of 170 kDa. For each concentration of substrate, the relationship between product fluorescence and concentration was determined directly by cleaving FRETS-rVWF71 to completion with excess recombinant ADAMTS13 MDTCS (Feys, H. B., et al. J. Thromb. Haemost. 7:2088-95, 2009) and measuring the fluorescence. Control assays contained plasma that was completely deficient in ADAMTS13. The initial velocities (nM/min) as a function of substrate concentration were fitted to the Michealis-Menten equation by nonlinear regression analysis (Prism, GraphPad).

“Hemoglobin (from UniProt P69905 2-142; P68871 2-147)”: the IC50 of inhibition of ADAMTS13 activity (FRETS-rVWF71 cleavage) in the data set with plasma ADAMTS13 (human) was 10 to 15 g/L.

B1: recombinant ADAMTS13 MDTCS (protein)
chain: AAGGILHLELLVAVGPDVFQAHQEDTERYVLTNLNIGAELLRDPSLGAQFRVHLVKMVILTEPEGAPNITANLTSSLLSVCGWSQTINPEDDTDPGHADLVLYITRFDLELPDGNRQVRGVTQLGGACSPTWSCLITEDTGFDLGVTIAHEIGHSFGLEHDGAPGSGCGPSGHVMASDGAAPRAGLAWSPCSRRQLLSLLSAGRARCVWDPPRPQPGSAGHPPDAQPGLYYSANEQCRVAFGPKAVACTFAREHLDMCQALSCHTDPLDQSSCSRLLVPLLDGTECGVEKWCSKGRCRSLVELTPIAAVHGRWSSWGPRSPCSRSCGGGVVTRRRQCNNPRPAFGGRACVGADLQAEMCNTQACEKTQLEFMSQQCARTDGQPLRSSPGGASFYHWGAAVPHSQGDALCRHMCRAIGESFIMKRGDSFLDGTRCMPSGPREDGTLSLCVSGSCRTFGCDGRMDSQQVWDRCQVCGGDNSTCSPRKGSFTAGRAREYVTFLTVTPNLTSVYIANHRPLFTHLAVRIGGRYVVAGKMSISPNTTYPSLLEDGRVEYRVALTEDRLPRLEEIRIWGPLQEDADIQVYRRYGEEYGNLTRPDITFTYFQPKPRQA
Turning to B1, the “cleavage of the substrate (fluorescence)” value in the data set with FRETS-rVWF71 is reported as “cleaving FRETS-rVWF71 to completion with excess recombinant ADAMTS13 MDTCS”.

B2: FRETS-rVWF71 (peptide)
peptide: T1 chain
modifications: Cys1610 modified with DyLight 633 (maleimide); N-terminal Gly modified with IRDye QC-1 (N-hydroxysuccinimidyl ester)
notes: Fluorogenic substrate; Recombinant peptide rVWF71 (extra N-terminal Gly = E1598G, N1610C, K1617R) labelled with fluorophore and quencher; also called VWF-rFRETS71; doubly-labeled substrate
B2: the binding result with plasma ADAMTS13 is “binds”.

B3: plasma ADAMTS13 (protein)
chain: T2 sequence (looked up)
For the molecule B3, in the data set with FRETS-rVWF71, the Km result is on record as “Km of 1.8 µM” and the kcat entry was “kcat of 6.8 min^-1 at 30 °C”.
